The supplement of paper PMC7877785
± gives the uncertainty stated by the source.

Test: self-splicing fitness, log relative to wild type (ln ratio); higher = more splicing; Tetrahymena group I intron in knt gene, E. coli kanamycin selection, DiMSum; sequences stand for … in CUCUCU…GGAGGGAAAAGUUAUCAGGCAUGCACCUGGUAGCUAGUCUUUAAACCAAUAGAUUGCAUCGGUUUAAAAGGCAAGACCGUCAAAUUGCGGGAAAGGGGUCAACAGCCGUUCAGUACCAAGUCUCAGGGGAAACUUUGAGAUGGCCUUGCAAAGGGUAUGGUAAUAAGCUGACGGACAUGGUCCUAACCACGCAGCCAAGUCCUAAGUCAACAGAUCUUCUGUUGAUAUGGAUGCAGUUCACAGACUAAAUGUCGGUCGGGGAAGAUGUAUUCUUCUCAUAAGAUAUAGUCGGACCUCUCCUUAAUGGGAGCUAGCGGAUGAAGUGAUGCAACACUGGAGCCGCUGGGAACUAAUUUGUAUGCGAAAGUAUAUUGAUUAGUUUUGGAGUACUCGUGGUCG
Summary of the method: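 Pooled colonies went to amplicon sequencing on an Illumina HiSeq 2500 after six replicate transformations. The plates were LB agar with 100 μg/mL carbenicillin, 50 μM IPTG and 0.2% rhamnose, with or without 25 μg/mL kanamycin, incubated overnight at 37°C or 30°C. The E. coli BL21(DE3) library had all eight P1ex-region intron nucleotides randomised, the intron placed in the knt kanamycin-resistance gene on pET-22b(+). DiMSum fitness is the error-weighted combination of replicate fold changes, kanamycin against none, normalised to wild type.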

Row | Sequence | self-splicing fitness (ln) (30 °C) | self-splicing fitness (ln) (37 °C)
1 | UAAAAGCAAUAUUACGAAGC | -3.23 ± 0.3 | -3.29 ± 0.46
2 | CUCAAGCAAUAUUACGUAAU | -3.29 ± 0.12 | -2.22 ± 0.1
3 | UCGAAGCAAUAUUACGUCAC | -2.21 ± 0.12 | -2.69 ± 0.27
4 | CUCUAGCAAUAUUACGCUAA | -2.65 ± 0.35 | -2.26 ± 0.4
5 | UAGCAGCAAUAUUACGAGAA | -2.19 ± 0.23 | -0.949 ± 0.18
6 | CGUAAGCAAUAUUACGGUUC | – | -2.59 ± 0.26
7 | CGUAAGCAAUAUUACGUCAA | -2.62 ± 0.26 | -1.56 ± 0.24
8 | CGGGAGCAAUAUUACGGUCC | – | -2.32 ± 0.24
9 | AGUAAGCAAUAUUACGUCCA | -0.878 ± 0.12 | -0.0078 ± 0.13
10 | AGGCAGCAAUAUUACGACCG | 0.153 ± 0.071 | 0.0303 ± 0.085
11 | CCUUAGCAAUAUUACGCUUG | -3.86 ± 0.3 | -3.5 ± 0.37
12 | GGCAAGCAAUAUUACGGGAA | -1.34 ± 0.12 | -1.16 ± 0.13
13 | UUGGAGCAAUAUUACGGGUA | – | -2.02 ± 0.23
14 | GACAAGCAAUAUUACGCCGA | -1.19 ± 0.12 | -0.179 ± 0.14
15 | UACAAGCAAUAUUACGUCUA | -0.798 ± 0.049 | 0.00361 ± 0.068
16 | GUGAAGCAAUAUUACGGACA | 0.209 ± 0.092 | -0.366 ± 0.1
17 | CGACAGCAAUAUUACGUUAU | -3.7 ± 0.13 | -2.23 ± 0.12
18 | ACAUAGCAAUAUUACGGCUA | -0.773 ± 0.055 | -0.391 ± 0.068
19 | UAGGAGCAAUAUUACGCGAG | -2.32 ± 0.16 | -0.56 ± 0.13
20 | UGGUAGCAAUAUUACGAGGU | -2.63 ± 0.45 | -2.6 ± 0.35
21 | CUGCAGCAAUAUUACGCGGA | -2.29 ± 0.21 | -2.21 ± 0.31
22 | AUACAGCAAUAUUACGUGCG | -0.886 ± 0.081 | -0.3 ± 0.091
23 | UUACAGCAAUAUUACGGACU | -2.05 ± 0.17 | -1.9 ± 0.17
24 | UGAAAGCAAUAUUACGUUCC | -1.36 ± 0.11 | -0.98 ± 0.13
25 | AACCAGCAAUAUUACGAGUU | -3.37 ± 0.16 | -1.78 ± 0.14

Row | Sequence | self-splicing fitness (ln) (30 °C) | self-splicing fitness (ln) (37 °C)
26 | AAGUAGCAAUAUUACGUUCA | -0.86 ± 0.081 | 0.409 ± 0.096
27 | CUCUAGCAAUAUUACGUCGA | -4.25 ± 0.42 | -0.879 ± 0.19
28 | ACCUAGCAAUAUUACGCUCU | -0.243 ± 0.096 | -0.447 ± 0.098
29 | GGGUAGCAAUAUUACGAUGC | -0.816 ± 0.14 | -0.295 ± 0.19
30 | AGCCAGCAAUAUUACGUACG | -3.04 ± 0.17 | -2.65 ± 0.17
31 | UGCUAGCAAUAUUACGUCUG | -0.586 ± 0.088 | -0.323 ± 0.095
32 | CAAGAGCAAUAUUACGCAAA | -2.46 ± 0.24 | -2.56 ± 0.41
33 | CACCAGCAAUAUUACGACUU | -3.4 ± 0.14 | -2.69 ± 0.13
34 | GUAAAGCAAUAUUACGUCCU | 0.164 ± 0.11 | 0.663 ± 0.16
35 | ACAGAGCAAUAUUACGCACA | – | -1.39 ± 0.36
36 | CCCGAGCAAUAUUACGUUGU | -3.46 ± 0.14 | -2.73 ± 0.19
37 | AGGCAGCAAUAUUACGUUAU | -1.78 ± 0.08 | -1.78 ± 0.11
38 | ACAGAGCAAUAUUACGUUCA | -2.1 ± 0.14 | -2.33 ± 0.2
39 | UACUAGCAAUAUUACGCGGA | -2.97 ± 0.18 | -1.42 ± 0.16
40 | AAUGAGCAAUAUUACGUGCA | -2.95 ± 0.22 | -0.932 ± 0.14
41 | CCGCAGCAAUAUUACGACGC | -3.71 ± 0.35 | -2.74 ± 0.27
42 | CCAGAGCAAUAUUACGUACA | – | -2.77 ± 0.29
43 | GGUUAGCAAUAUUACGGCCA | -0.0519 ± 0.23 | 0.0427 ± 0.2
44 | GGAGAGCAAUAUUACGCUCC | – | -1.68 ± 0.45
45 | UCUGAGCAAUAUUACGGUUA | -2.82 ± 0.18 | -2.05 ± 0.14
46 | UGCAAGCAAUAUUACGGCUU | – | -1.72 ± 0.28
47 | GUACAGCAAUAUUACGCUUC | -2.54 ± 0.19 | -2.69 ± 0.26
48 | AGACAGCAAUAUUACGCCUA | -1.46 ± 0.16 | -0.402 ± 0.17
49 | UGUAAGCAAUAUUACGUAGA | -0.696 ± 0.12 | -0.209 ± 0.16
50 | GUAUAGCAAUAUUACGACAA | -0.741 ± 0.27 | -1.34 ± 0.3
